This series concerns the target A3A(E72A) (Homo sapiens, UniProt P31941 1-199, E72A). The series can be described thus: fluorescence anisotropy; pH 6.0; 50 mM MES pH 6.0, 100 mM NaCl, 0.5 mM TCEP, room temperature overnight, 10 nM TAMRA-oligo; competition with 300 nM A3A(E72A); pH series: acetate 4.0-5.0, MES 5.5-6.5, HEPES 7.0-8.0, Tris 8.5-9.0. Particulars: protein: recombinant; tags: His6-SUMO removed by Ulp1 (untagged); label: 5' TAMRA; hairpin. A general note: In fluorescence polarisation assays a small probe gives low polarisation when free and higher when bound to something large.

A3A(E72A), sequence (P31941 whole entry E72A): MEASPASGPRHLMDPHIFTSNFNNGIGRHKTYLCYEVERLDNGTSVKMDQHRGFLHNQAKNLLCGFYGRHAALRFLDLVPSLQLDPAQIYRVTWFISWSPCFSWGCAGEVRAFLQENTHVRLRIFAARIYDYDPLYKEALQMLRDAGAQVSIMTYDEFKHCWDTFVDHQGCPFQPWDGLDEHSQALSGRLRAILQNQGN

With GCCATCATTCGATGGG (structured_DNA) [Hairpin-TTC], the dissociation constant (Kd) is 26 ± 2 nM.

One may read the Kd as a measure of binding affinity in units of concentration.

The values are drawn from PMC5951847, “Substrate sequence selectivity of APOBEC3A implicates intra-DNA interactions”.
